Data: PMC3938326

Molecular target: T1, hPh1 FCS domain (Polyhomeotic homolog 1) (human, UniProt P78364 783-828)
T1 chain: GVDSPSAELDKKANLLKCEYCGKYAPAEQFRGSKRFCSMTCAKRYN
Test: NMR HSQC titration

Binder: GGGCACGCGUAUUGCCCUAGUGGCCGGCGUGCCC (structured_RNA) [34nt RNA]
- Kd: 3000 ± 1100 µM
